Residue numbers refer to the chain shown, from its start.

The values that follow come from patent US20250002577A1 (ONCORESPONSE, published 2025).

B1: B21H1-24 (antibody, human IgG1, kappa)
heavy: not shown
light: DVVMTQSPSTVSASVGDRVTLTCQASGNIYSFLAWYQQKPGQPPKLLIYTASNLETGVPDRFSGSGSGTDYTLTISSLQADDFATYYCLGGLYSSDVSYAFGQGTKVEIKRTVAAPSVFIFPPSDEQLKSGTASVVCLLNNFYPREAKVQWKVDNALQSGNSQESVTEQDSKDSTYSLSSTLTLSKADYEKHKVYACEVTHQGLSSPVTKSFNRGEC
notes: humanized IgG1/kappa, VH2+VL4
B2: B21H1-11 (antibody, human IgG1, kappa)
heavy: not shown
light: B1 light with V2I, V3Q, V11L, L21I, Q42K, P43A, D60S, D70E, A80P, Q103P
notes: humanized IgG1/kappa, VH1+VL1
B3: B21H1-43 (antibody, human IgG1, kappa)
heavy: not shown
light: DIVMTQSPSSVSASVGDRVTITCQASGNIYSFLAWYQQKPGKAPKLLIYTASNLETGVPSRFSGSGSGTDFTLTISSLQPEDFATYYCLGGLYSSDVSYAFGGGTKVVIKRTVAAPSVFIFPPSDEQLKSGTASVVCLLNNFYPREAKVQWKVDNALQSGNSQESVTEQDSKDSTYSLSSTLTLSKADYEKHKVYACEVTHQGLSSPVTKSFNRGEC
notes: humanized IgG1/kappa, VH4+VL3
B4: B21H1-25 (antibody, human IgG1, kappa)
heavy: not shown
light: DIQMTQTPSTVEASVGGTVTITCQASGNIYSFLAWYQQKPGQPPKLLIYTASNLETGVPSRFSGSGSGTEYTLTISGLQSDDAATYYCLGGLYSSDVSYAFGGGTEVVVKRTVAAPSVFIFPPSDEQLKSGTASVVCLLNNFYPREAKVQWKVDNALQSGNSQESVTEQDSKDSTYSLSSTLTLSKADYEKHKVYACEVTHQGLSSPVTKSFNRGEC
notes: humanized IgG1/kappa, VH2+VL5

T11 sequence (Q8NHL6 24-458 limits assumed): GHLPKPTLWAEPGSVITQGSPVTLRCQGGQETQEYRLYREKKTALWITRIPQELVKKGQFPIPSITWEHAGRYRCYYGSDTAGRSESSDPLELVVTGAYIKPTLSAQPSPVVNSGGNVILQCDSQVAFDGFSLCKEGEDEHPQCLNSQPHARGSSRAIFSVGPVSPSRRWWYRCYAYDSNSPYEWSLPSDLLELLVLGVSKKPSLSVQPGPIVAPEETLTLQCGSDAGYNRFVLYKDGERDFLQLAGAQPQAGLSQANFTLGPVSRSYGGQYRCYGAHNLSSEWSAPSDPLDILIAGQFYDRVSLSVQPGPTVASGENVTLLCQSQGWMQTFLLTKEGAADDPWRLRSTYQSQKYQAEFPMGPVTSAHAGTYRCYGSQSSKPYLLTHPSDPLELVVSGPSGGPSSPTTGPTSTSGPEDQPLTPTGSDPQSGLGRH
T10 sequence (A6NI73 42-299): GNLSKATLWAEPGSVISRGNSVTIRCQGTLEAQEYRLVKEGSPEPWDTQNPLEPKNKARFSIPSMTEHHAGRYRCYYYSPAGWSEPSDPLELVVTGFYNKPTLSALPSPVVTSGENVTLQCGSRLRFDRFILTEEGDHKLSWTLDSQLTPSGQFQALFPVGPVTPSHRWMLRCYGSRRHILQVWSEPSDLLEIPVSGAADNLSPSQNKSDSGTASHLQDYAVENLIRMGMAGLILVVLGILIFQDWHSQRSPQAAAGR
T9 sequence (O75022 24-631): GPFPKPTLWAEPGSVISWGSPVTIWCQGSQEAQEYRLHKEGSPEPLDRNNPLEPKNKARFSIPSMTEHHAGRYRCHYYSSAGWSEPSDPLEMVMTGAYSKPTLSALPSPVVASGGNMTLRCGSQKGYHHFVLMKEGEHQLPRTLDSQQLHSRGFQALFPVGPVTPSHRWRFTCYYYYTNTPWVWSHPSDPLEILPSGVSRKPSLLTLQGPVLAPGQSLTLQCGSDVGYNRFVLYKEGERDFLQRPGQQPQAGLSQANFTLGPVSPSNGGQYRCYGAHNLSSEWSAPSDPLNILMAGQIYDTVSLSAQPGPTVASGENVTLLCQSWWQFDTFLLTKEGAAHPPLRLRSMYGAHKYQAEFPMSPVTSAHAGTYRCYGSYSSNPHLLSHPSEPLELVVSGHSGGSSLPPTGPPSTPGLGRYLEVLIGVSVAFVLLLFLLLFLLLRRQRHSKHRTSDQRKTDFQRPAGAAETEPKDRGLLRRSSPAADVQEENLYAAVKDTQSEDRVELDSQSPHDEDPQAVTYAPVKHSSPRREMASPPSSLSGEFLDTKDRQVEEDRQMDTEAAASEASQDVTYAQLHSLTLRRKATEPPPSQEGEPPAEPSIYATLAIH
T2 sequence (O75023 24-590): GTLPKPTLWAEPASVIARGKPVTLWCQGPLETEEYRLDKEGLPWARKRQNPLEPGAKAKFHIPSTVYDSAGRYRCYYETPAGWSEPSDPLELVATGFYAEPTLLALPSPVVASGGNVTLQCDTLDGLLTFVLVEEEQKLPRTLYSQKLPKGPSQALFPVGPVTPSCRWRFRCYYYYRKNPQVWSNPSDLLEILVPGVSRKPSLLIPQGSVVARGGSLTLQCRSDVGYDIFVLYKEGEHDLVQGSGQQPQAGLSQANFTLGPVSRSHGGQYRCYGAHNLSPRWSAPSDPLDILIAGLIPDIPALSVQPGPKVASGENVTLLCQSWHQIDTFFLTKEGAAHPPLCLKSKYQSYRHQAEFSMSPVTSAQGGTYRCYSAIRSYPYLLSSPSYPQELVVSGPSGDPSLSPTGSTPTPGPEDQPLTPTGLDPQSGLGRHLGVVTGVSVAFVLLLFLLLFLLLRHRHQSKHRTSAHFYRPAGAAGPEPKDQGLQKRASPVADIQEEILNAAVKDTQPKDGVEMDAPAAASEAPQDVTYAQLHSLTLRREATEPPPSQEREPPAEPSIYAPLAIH
T3 sequence (Q8N149 24-483): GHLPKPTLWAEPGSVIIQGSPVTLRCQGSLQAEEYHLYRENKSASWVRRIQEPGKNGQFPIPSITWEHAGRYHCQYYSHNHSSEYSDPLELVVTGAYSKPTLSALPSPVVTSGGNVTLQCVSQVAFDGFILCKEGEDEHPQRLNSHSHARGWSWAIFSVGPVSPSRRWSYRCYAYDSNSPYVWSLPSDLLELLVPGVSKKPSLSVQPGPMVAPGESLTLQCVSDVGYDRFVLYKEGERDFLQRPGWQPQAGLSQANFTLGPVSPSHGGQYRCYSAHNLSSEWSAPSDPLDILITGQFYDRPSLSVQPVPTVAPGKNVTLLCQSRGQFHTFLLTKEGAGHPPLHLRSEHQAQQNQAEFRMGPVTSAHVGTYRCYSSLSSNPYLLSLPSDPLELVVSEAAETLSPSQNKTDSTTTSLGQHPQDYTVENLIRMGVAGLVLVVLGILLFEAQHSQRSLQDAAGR

For one test, the target named is T1, human LILRB2 on cells (human, UniProt Q8N423 22-597).
T1 construct: whole, on cells; also called hLILRB2; LILRB2-HEK293T
T1 sequence (Q8N423 22-597): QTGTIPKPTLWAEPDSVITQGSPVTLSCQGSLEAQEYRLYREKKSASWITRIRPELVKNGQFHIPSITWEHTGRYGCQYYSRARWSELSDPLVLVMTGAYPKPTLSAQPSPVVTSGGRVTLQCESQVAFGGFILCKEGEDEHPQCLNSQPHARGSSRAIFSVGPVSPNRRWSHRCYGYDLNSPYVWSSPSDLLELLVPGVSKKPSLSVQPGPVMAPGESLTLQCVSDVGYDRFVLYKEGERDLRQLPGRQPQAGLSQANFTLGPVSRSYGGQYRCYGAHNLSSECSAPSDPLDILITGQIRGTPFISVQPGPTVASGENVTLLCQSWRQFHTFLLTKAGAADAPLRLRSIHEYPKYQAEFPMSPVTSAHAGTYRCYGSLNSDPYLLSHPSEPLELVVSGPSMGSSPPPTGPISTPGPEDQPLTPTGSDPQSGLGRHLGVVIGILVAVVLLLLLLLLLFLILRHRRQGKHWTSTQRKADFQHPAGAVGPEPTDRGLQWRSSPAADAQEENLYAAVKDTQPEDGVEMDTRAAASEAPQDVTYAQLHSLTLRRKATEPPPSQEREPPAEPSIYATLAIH
Briefly: flow cytometry, LILRB2-HEK293T cells, AF647-labelled antibody. Summed up: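 Cells were blocked 30 min at 4° C in FACS buffer with 10% FBS and 0.5 mg/mL human IgG1. AF647-labelled antibodies were then bound for 1 h at 4° C. After Zombie Violet viability staining, binding was read by flow cytometry.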
On the technique in general: Flow cytometry measures light scatter and fluorescence of single cells or particles in a stream.
The term EC50 denotes the concentration at which the effect is half-maximal. B1 showed an EC50 of 0.00142 µg/mL.
Still for that read-out and setting: the same measure for B2: 0.00107 µg/mL; for B3: 0.00135 µg/mL.
Still for that read-out and setting: for B4 the value was 0.0009 µg/mL.

A further test deals with T1, human LILRB2 on cells. Briefly: flow cytometry, HEK293-6E transfectants. The gist of the method:
(§1)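 Antibody binding measured by flow cytometry on HEK293-6E cells transiently transfected with individual human LILRB (1–5) or LILRA (1, 2, 4, 5, 6) plasmids. Antibodies tested at 1 μg/mL.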
Molecule B1 showed an MFI of 6050 MFI.
Same read-out and setting: for B2 the value was 5090 MFI.
The same measure, in the same setting: for B3 the value was 6370 MFI; for B4, 5320 MFI.

A further test concerns the target T2, human LILRB5 on HEK293-6E cells (human, UniProt O75023 24-590).
T2 construct: whole, on cells; also called hLILRB5
The test can be described thus: flow cytometry, HEK293-6E transfectants. Summed up:
as §1
With B1, the MFI was 87 MFI and the binding result is on record as “no binding (tested: 1 µg/mL)”.
For the molecule B2, the MFI was found to be 93.4 MFI and the binding result is on record as “no binding (tested: 1 µg/mL)”.
For B3, in that order: 85.5 MFI and “no binding (tested: 1 µg/mL)”.
On the same counts, the results for B4 are 90.6 MFI and “no binding (tested: 1 µg/mL)”.

The next test addresses T3, human LILRA2 on HEK293-6E cells (human, UniProt Q8N149 24-483).
T3 construct: whole, on cells; also called hLILRA2
Briefly: flow cytometry, HEK293-6E transfectants. The gist of the method:
as §1
With B1, the MFI amounted to 25.6 MFI and the binding result was “no binding (tested: 1 µg/mL)”.
With B2, the MFI turned out to be 27.8 MFI and the binding result is “no binding (tested: 1 µg/mL)”.
For B3, in that order: 25.2 MFI and “no binding (tested: 1 µg/mL)”.
On the same counts, the results for B4 are 27.4 MFI and “no binding (tested: 1 µg/mL)”.

Another test concerns the target T4, human LILRB4 on HEK293-6E cells (human, UniProt Q8NHJ6 22-448).
T4 construct: whole, on cells; also called hLILRB4
The test can be described thus: flow cytometry, HEK293-6E transfectants. The gist of the method: as §1
On to B1, for which the MFI was 28.6 MFI and the binding result is on record as “no binding (tested: 1 µg/mL)”.
For B2, in that order: 32.4 MFI and “no binding (tested: 1 µg/mL)”.
For B3, in that order: 26.5 MFI and “no binding (tested: 1 µg/mL)”.
For B4, in that order: 32.4 MFI and “no binding (tested: 1 µg/mL)”.

A further test has as its target T5, human LILRA4 on HEK293-6E cells (human, UniProt P59901 24-499).
T5 construct: whole, on cells; also called hLILRA4
The test can be described thus: flow cytometry, HEK293-6E transfectants. Summed up: as §1
As for B1, the MFI came out at 125 MFI and the binding result is “no binding (tested: 1 µg/mL)”.
On the same counts, the results for B2 are 140 MFI and “no binding (tested: 1 µg/mL)”.
For B3, in that order: 114 MFI and “no binding (tested: 1 µg/mL)”.
For B4, in that order: 138 MFI and “no binding (tested: 1 µg/mL)”.

In another test the target is T6, human LILRB1 on cells (human, UniProt Q8NHL6 24-650).
T6 construct: whole, on cells; also called hLILRB1; LILRB1-expressing 721.221 cells
T6 sequence (Q8NHL6 24-650): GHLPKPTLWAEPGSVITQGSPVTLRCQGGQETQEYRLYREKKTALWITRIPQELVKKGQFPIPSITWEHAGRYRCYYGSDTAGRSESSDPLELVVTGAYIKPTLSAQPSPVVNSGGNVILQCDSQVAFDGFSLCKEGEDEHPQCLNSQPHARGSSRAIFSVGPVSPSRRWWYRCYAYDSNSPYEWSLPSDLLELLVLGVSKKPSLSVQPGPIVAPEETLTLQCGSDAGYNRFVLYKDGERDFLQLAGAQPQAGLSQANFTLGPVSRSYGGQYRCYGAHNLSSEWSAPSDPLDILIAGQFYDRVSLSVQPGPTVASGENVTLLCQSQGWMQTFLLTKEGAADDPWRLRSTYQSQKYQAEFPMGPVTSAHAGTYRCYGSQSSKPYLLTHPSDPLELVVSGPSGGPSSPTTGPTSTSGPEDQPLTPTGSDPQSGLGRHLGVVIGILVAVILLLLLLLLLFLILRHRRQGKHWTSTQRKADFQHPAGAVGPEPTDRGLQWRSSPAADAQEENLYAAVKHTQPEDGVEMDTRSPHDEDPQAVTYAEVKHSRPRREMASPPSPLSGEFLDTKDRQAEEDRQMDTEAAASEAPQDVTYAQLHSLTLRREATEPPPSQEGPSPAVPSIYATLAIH
Briefly: flow cytometry, HEK293-6E transfectants. The gist of the method:
as §1
As to B1, the MFI was 985 MFI.
On the same count and under the same terms, for B2 the value was 1000 MFI; for B3, 1120 MFI.
On the same count and under the same terms, for B4 the value was 990 MFI.

Another test deals with T7, human LILRA6 on HEK293-6E cells (human, UniProt Q6PI73 24-481).
T7 construct: whole, on cells; also called hLILRA6
T7 sequence (Q6PI73 24-481): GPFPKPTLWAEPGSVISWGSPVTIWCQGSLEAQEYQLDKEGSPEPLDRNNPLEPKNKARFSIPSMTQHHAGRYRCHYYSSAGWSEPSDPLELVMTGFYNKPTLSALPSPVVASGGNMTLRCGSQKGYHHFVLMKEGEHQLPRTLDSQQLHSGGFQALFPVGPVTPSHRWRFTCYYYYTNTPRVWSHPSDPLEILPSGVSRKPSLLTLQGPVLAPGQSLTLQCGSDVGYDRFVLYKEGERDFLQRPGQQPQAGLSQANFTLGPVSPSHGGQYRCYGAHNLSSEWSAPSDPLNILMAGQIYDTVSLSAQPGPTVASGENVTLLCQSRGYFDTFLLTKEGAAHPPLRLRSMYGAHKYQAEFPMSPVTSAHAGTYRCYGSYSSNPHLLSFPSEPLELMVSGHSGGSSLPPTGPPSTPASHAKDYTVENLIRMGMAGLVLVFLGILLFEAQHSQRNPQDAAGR
Briefly: flow cytometry, HEK293-6E transfectants. The gist of the method: as §1
For B1, the MFI is 141 MFI and the binding result was “no binding (tested: 1 µg/mL)”.
On the same counts, the results for B2 are 152 MFI and “no binding (tested: 1 µg/mL)”.
With B3, the MFI worked out at 141 MFI and the binding result is reported as “no binding (tested: 1 µg/mL)”.
On the same counts, the results for B4 are 148 MFI and “no binding (tested: 1 µg/mL)”.

The target of a further test is T8, human LILRA1 on HEK293-6E cells (human, UniProt O75019 17-489).
T8 construct: whole, on cells; also called hLILRA1
T8 sequence (O75019 17-489): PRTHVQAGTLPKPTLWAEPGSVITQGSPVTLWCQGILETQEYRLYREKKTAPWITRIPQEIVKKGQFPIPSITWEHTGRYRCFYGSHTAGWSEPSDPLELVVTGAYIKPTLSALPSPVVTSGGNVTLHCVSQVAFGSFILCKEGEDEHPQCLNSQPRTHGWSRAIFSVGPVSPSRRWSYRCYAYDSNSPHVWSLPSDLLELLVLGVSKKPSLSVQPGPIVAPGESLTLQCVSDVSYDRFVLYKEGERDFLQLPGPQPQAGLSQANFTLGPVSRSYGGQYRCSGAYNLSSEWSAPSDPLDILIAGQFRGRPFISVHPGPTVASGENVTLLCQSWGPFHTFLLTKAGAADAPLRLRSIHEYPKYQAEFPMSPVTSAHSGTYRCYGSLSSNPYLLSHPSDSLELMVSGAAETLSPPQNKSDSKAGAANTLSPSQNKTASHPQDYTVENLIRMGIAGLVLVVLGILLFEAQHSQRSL
The test can be described thus: flow cytometry, HEK293-6E transfectants. Summed up: as §1
Turning to B1, the MFI was 246 MFI and the binding result is on record as “no binding (tested: 1 µg/mL)”.
For B2, in that order: 244 MFI and “no binding (tested: 1 µg/mL)”.
For B3, in that order: 220 MFI and “no binding (tested: 1 µg/mL)”.
For the molecule B4, the MFI is 280 MFI and the binding result is “no binding (tested: 1 µg/mL)”.

A further test has as its target T9, human LILRB3 on HEK293-6E cells (human, UniProt O75022 24-631).
T9 construct: whole, on cells; also called hLILRB3
The test can be described thus: flow cytometry, HEK293-6E transfectants. The gist of the method: as §1
Regarding B1, the MFI is 86.2 MFI and the binding result was “no binding (tested: 1 µg/mL)”.
In the case of B2, the MFI was determined as 102 MFI and the binding result is “no binding (tested: 1 µg/mL)”.
For B3, in that order: 79.2 MFI and “no binding (tested: 1 µg/mL)”.
In the case of B4, the MFI was 93.9 MFI and the binding result is “no binding (tested: 1 µg/mL)”.

A further test concerns the target T10, human LILRA5 on HEK293-6E cells (human, UniProt A6NI73 42-299).
T10 construct: whole, on cells; also called hLILRA5
The test can be described thus: flow cytometry, HEK293-6E transfectants. The gist of the method:
as §1
Take B1: the MFI was 74.5 MFI and the binding result is reported as “no binding (tested: 1 µg/mL)”.
On the same counts, the results for B2 are 76 MFI and “no binding (tested: 1 µg/mL)”.
For B3, in that order: 71.8 MFI and “no binding (tested: 1 µg/mL)”.
Consider B4, for which the MFI came to 78.2 MFI and the binding result was “no binding (tested: 1 µg/mL)”.

The target of another test is T6, human LILRB1 on cells. The test can be described thus: flow cytometry, 721.221 cells, AF647-labelled antibody. As for the experimental part: While LILRB2 expression is mostly restricted to myeloid cells, LILRB1 has a broader expression on immune cell subsets, including B cells, T cells and NK cells.
Frozen cells were removed from storage in vapor phase liquid nitrogen and thawed by gentle swirling in a water bath at 37° C., then resuspended in DMEM media with 10% FBS. Cells were placed in a 15 mL conical tube and centrifuged at 300×g for 5 min, then supernatant was removed. Cells were resuspended in DMEM+10% FBS at a cell density of 2×10⁵ cells/mL in a T75 flask for culturing, and incubated at 37° C., 5% CO₂ for 3 days before passaging. Cells were passaged when the cell density reached 1×10⁶ cell/mL. On the day of the assay, cells were centrifuged, then supernatant was removed. Cells were resuspended in Blocking Buffer B (FACS Buffer containing 10% FBS and 0.5 mg/mL human IgG1 (Athens Research, No. 16-16-090707-1M)+0.05% NaN₃, 5% (w/v)) in a 15 mL conical tube, then incubated at 4° C. for 30 min. […] Cells were incubated with antibodies at 4° C. for 1 h. Cells were washed twice in FACS Buffer (PBS containing 2 mM EDTA+1% FBS+0.05% NaN₃) and then stained with for 10 min with Zombie Violet™ fixable viability dye (BioLegend, No. 423114) at RT, washed with FACS Buffer and resuspend in 75 μL of FACS Buffer for acquisition on a BD FACSymphony™ or BD FACSCanto™ II flow cytometer (BD Biosciences), as described in Example 6.
Molecule B1 gave an EC50 of 0.0595 µg/mL.
On the same count and under the same terms, the same measure for B2: 0.203 µg/mL; for B3: 0.0515 µg/mL; for B4: 0.0782 µg/mL.

Another test has as its target T11, recombinant human LILRB1-His (human, UniProt Q8NHL6 24-458).
T11 construct: Bought protein; also called LILRB1 protein
Briefly: MSD ELISA, coated antigen, purified IgG1. In general terms: In an ELISA, binding on a coated surface is turned into a signal by an enzyme label.
As to B1, the EC50 stood at 0.00864 µg/mL.
On the same count and under the same terms, for B2 the value was 0.00734 µg/mL.
Still for that read-out and setting: the same measure for B3: 0.00734 µg/mL; for B4: 0.0095 µg/mL.

The target in a further test is T12, recombinant human LILRB2-His (human, UniProt Q8N423 22-461, limits assumed).
T12 construct: Bought protein; also called LILRB2 protein
T12 sequence (Q8N423 22-461 limits assumed): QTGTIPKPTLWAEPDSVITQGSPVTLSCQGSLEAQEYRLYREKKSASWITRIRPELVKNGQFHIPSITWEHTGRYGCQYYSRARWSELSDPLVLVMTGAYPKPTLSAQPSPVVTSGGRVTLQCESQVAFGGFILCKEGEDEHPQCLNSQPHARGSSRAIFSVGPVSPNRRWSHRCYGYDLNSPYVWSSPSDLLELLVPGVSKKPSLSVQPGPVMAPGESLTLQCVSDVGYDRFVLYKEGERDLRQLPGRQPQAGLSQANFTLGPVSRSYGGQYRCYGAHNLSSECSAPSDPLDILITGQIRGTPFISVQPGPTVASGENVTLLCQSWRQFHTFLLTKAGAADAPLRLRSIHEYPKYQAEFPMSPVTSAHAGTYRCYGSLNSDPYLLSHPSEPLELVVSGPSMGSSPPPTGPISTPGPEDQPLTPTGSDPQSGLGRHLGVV
Briefly: MSD ELISA, coated antigen, purified IgG1.
Take B1: the EC50 came out at 0.0287 µg/mL.
On the same count and under the same terms, for B2 the value was 0.0306 µg/mL.
The same measure, in the same setting: the same measure for B3: 0.0248 µg/mL.
Same read-out and setting: for B4 the value was 0.0318 µg/mL.

A further test concerns the target T13, recombinant cynomolgus LILRB1 (cynomolgus).
T13 construct: Bought protein
Briefly: MSD ELISA, coated antigen, purified IgG1.
Take B1: the EC50 came to 0.286 µg/mL.
Same read-out and setting: the same measure for B2: 4.4 µg/mL; for B3: 1.51 µg/mL; for B4: 0.377 µg/mL.
